Earlier results in article PMC12513479.

Legend:
[1] = target: IFNAR2 (Homo sapiens) (UniProt P48551)
[2] = target: IFNAR1 (Homo sapiens) (UniProt P17181)
Chain of UniProt P17181 (P17181 28-436): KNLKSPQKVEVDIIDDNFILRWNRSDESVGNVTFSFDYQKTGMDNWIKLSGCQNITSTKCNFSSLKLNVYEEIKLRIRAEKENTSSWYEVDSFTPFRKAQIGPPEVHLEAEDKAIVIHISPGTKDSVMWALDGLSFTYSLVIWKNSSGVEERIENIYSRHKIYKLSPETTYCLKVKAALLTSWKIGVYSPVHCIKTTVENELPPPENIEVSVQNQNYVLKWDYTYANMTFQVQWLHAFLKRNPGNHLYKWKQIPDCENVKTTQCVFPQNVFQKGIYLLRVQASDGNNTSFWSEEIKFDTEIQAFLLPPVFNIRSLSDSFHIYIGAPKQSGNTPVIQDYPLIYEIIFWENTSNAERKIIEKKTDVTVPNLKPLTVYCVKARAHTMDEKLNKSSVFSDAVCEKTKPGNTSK

Chain of UniProt P48551 (P48551 27-243): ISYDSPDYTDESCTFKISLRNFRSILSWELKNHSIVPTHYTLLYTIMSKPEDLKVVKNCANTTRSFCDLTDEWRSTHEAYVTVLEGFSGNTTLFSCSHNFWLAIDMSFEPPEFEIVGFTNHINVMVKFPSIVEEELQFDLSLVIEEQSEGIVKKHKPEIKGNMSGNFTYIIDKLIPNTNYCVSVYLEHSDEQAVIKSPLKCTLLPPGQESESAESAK

Kd [1]: 0.1 nM
Kd [2]: 100 nM
Substance: IFN-β (from UniProt P01574)
